Experimental findings from the NTF2 design screens of Basanta et al. (2020) are described below.

A short description of the series: protease stability score; higher = more stable; yeast display proteolysis, trypsin and chymotrypsin.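 Also: relative to predicted unfolded state with 0 unfolded-like and 1 meaning tenfold more protease.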
“DEDEHKYRRAAEEFFKILRTGDEDLWKRYADPTPILLLLVGDKIDEYHGMEEVMRVLHEEWRRLGVDHMHVKRVDLQGEKVEMDFTRHIGDKTIRITIIVVVIDGRMKSVEIRTH” displayed a protease stability score of 0.8.
The sequence “DEDEHLARRLSTEVEKLMLTGDEHLIKRLLDPDARINVNGVDLHGRHHYITHLHRFLLEAGVDNVHSELTTWRVYGDYVHVHGTLHINGVRFNHHFLFEKVDGRWIIKWLDDR” came in with a protease stability score of 1.12.
The sequence “DEDEHLLEMALKYFLRHWKTGDEEMIMHLADPNVRLVVGDKKHHGREELFRFVHEMGANHIEVRDSELQGNKLILHLEVNVGDKRHDIKVVIEKIDGRWHLHSLEHR” had a protease stability score of 1.65.
With “DEDEHLVRYLVEELIKFEQTGNEDEWNRLADPNVRIEINGVENHGREQYRKAFYEWRIHSLTVHHIRIDVQGEKALSIVDTETDGEYNGRQTRVKTNLIIHTKKVDGRWLVHSLVIKTE”, the protease stability score came to 1.25.
In the case of “DEDEHMRRIAYRLMWEVWHTGNFEELISLVDPHARVDIDGVELHGRENFTHELHERLRRMGVETQFRLRKVESYNGVVHIHTELEITIDGRNHKIDFIFYAHKINGRWRMKSEEYR”, the protease stability score came to 1.8.
To “DEDEHMVKHAIELILKSIITGDEDLWKRLFDPDVKIEVGDKDVHGRELATEFMKLWRDHMRFTHHEITRVETYNGRAHIHGRDRVTIDGQEMTRESHLVMIKVDGRWFLHSVHIK” belongs 1.07; to “DEDEHNVREFIERIMRILETGDEHDFKRMADPDVRFEIGDKLIHGMETWSEIHTDELKRIPNLKIQLRIHDVHAYNGRAHVHSHFVIEFDGKRHIIETEMFIIKINGQWHLRSIKYK”, 1.46; to “DEDEHQSRHLAELIMRHIQTGDEEMIERLADPHARSNVNGVTDHGRNTMRWMKEFFKNLTLHIEDVRIVHIGNKVIVIIHLTVRFENREEHVIIIIISEKFDGRWWITEIEIRIK”, 0.505.
Turning to “DEDEHRTKYWMQILIEVFKTGDWRRLWELFDPNVRLDINGKDSHGRRDMVRVFEEELRHMGINHIELRDFEIQGEKAIVHMTINVDGRRHELELIFLVVDGRVKEIRVHER”, the protease stability score stood at 1.88.
Regarding “DEDEHTIRELFKEFIIAQVTGDFERLHELLDPHARLEIDGVILHGREQWTKFMQHLLEYLGIKHVSFHLHHLDVQGEKVKLDSRVRLFFNGVHYEKRNIIIWRKFNGRWYLEESTIE”, the protease stability score was found to be 1.48.
As for “DEDEHVLEHIVRLLIRIHLTGNFDRLRELVDPHAQIIIGDKEYHGWHMLEKWLERMGIDHIHIRHNEIRYYGEFAVLHLDTEVSIDGQSLHQIVHLDVDKVDGKWRVKNIRTDHR”, the protease stability score amounted to 1.34.
Regarding “DEDEHYAREAVHLVYEILHTGDEHELMKYADPDTRIDIGDKTHIGRDRVVEAIHKMHKKLGVDHEVLTDSKVHWQGNKIEIYLKIEIHVGDKRFEMDIIIHLEKINGRWRVKSMRIDFR”, the protease stability score came to 1.33.
Turning to “DEDEKASKEFMRLVMEVLKTGDWKSLVDLADPHARLHINGREIHGREKISEILLHELDLLGFKHMEVRVHHVEVQGEKMKFDVRHSLDVNGVERHETSMIISVKFDGQWWLKEEIVK”, the protease stability score is -0.07.
“DEDEKASKVFVRLIKESIETGDEDTITHLADPNVRVIIGDKELHGWEELSRILHELRIHRFIVRREHVYDGRVQIDGRMDTEINGKKFITEVHVDAIKINGVWWLHLVEIR” had a protease stability score of 1.38.
“DEDEKDAERAVKHWIKLMHTGDEELLIRLFDPHTRVEIDGVEFHGREKVTELFREFTKRVKNVRIILRRYRIVGEWIEVDTEVRVGDKSSEVHLVILKVDGKWIMHVEHYK” came in with a protease stability score of 1.85.
Sequence “DEDEKDTHIWIKILEHIWDTGDEESFERLADPNVRFIQGEKELHGRERLIRFLSKYKNLTFRSEDYHIVNGRALVRITNHVNGRDLEMIIYYEKVNGQWHNKEIELR” came in with a protease stability score of 1.27.
To “DEDEKEAEHAAKLFSRHFRTGDEDLLREMIDPNVRIRIGDKELHGWEEFTRLMREWRFDDVHVEHIHVQGDKVIVDSILHVIINGRHIDFRSHIYIEKIDGRWVIRSFEIR” belongs 0.651.
In turn, “DEDEKEAHELSRTIIESWLTGDEDSLSEMMDPHTRSDVNGRISHGREEASRVWHEEMRKLGVKHYEIKRVHSRVIDGRLDLHIYSRMHINGVSRSVELIFHIEKVNGRWLIKEVRVHLL” gave a protease stability score of 1.25.
In turn, “DEDEKEATHWWRLLIKNIETGDEKSEKELLDPHARVEIGEFESVGRETVAEMWFRLMEHIRLKDSHEKDFDMQGDYMHVNGHVVGEYNGKHIKSDVRIILIVIDGRVKEVTVKIH” registered a protease stability score of 0.208.
As for “DEDEKEIAKTVKELVHSLRTGDWEKITRMADPHVKIHVNGRELHGWEEMRRFEEEEFKRLGFKHRDVELKDFRYQGNFAHVHGNLVVEFNGVEEEIDQHIIILKVNGRWLITEIRHH”, the protease stability score turned out to be 1.31.
Sequence “DEDEKELERVMREFMRVWLTGNEKDFKELMDPHVRLEIGDKEHHGREEAVRILHEWRRKLGVDHSDYHHIHVQGEKMHVRGISEYNGRTVEVIIEVLIINGKLRSVHVEFR” displayed a protease stability score of 2.57.
The sequence “DEDEKEQKEIADLWKKYVDTGDEKLLMELMDPTARLNIGDKRFHGRETFEHVMREIKKRYDHFELHIHHIDIQGEKIRMEGREINKFDGKTVDIRTRIRIIVVNGRITFLHHQLD” registered a protease stability score of 0.622.
“DEDEKERKRDLDKLRHFLETGNEQHLLEMLDPHARVTVGDKELIGREDFSKWMLEMRIHHDEIKRLEIYNGRIHVDYEMDVEVGDKRFRTDFRITARKVNGRWILHSMEVK” showed a protease stability score of 1.54.
To “DEDEKESKEAIEISFRLWRTGNEEEIHNYADPRARLEVFINGRLIQRHGREDFSRFMNEQLKRLGIDHIHIERLEIQGEKVIVDIHITVNGQHFRLHQDARKVDGRWIIHDVKINLL” belongs 2.65; to “DEDEKEYTEMVLILSRMIETGDEDSLRRLMDPHAKIHINGKEIHGRELWVHILHEHKRKLGYDNIRVNVHRIWVHGDKIRVHGHLHIDGKEHEVHVHIEKINGRWVLRHDEIR”, 1.68; to “DEDEKFTKEVIELWIRALRTGDEHTLMRLMDPHVRFEDENYSLHGREDVSRWLIKLLVHLRLEESDEHDSKIIGDKAHLHITSNHIFNGKELHMEIHIIVFKINGRWFVHEVRFR”, 1.72.
To “DEDEKHARDLMKLWQLAMFTGDEDTLKRLVDPDMRLKYGEFELHGREDLLRFFKHWRLESRLETTDVRFQGDKLVAYGVRRHVSHIDGVEVEETRRVITYILKVDGQWYVKSVEIR” belongs 1.67; to “DEDEKHMEEWLRLLKHALVTGDFEMILRNLDPHYRNDINGREFHGWEFFDKLMKEIRVKDSHLTHIEIYDGKAISETNVDLHVDGKDVLLDTRVVIDKYNGRWIIRHVSID”, 1.23.
To “DEDEKIARDQLEHFFHSVQTGNEDELRRLLDPNTYIDINGRTYHGREEVVKWMVHWFEHARLRRVHIRHSRSIGDKIILDTKMNVDINGVERHLDVNVIYLKVDGKWINHSEIVK” belongs 1.56; to “DEDEKIIEDIIRKIWLAFMTGDEELYERLADPEDRLEVGEKTAVGREDVRRALHEWIRKLGIKHSHTRHMDFQGDKLIIHGEMLFNGRTFDLQLEFNVVNGRLKSMHVRIR”, 1.58; to “DEDEKIIQQFLREHTETNDTGDENTFKKQLDPHARTIFNGREYHGREDAYRILKELGWSRFEFHLRHVDIQGEKLHVMGLLRVDGKWLDVEIVANKINGRWVLTEFHIN”, 0.417.
As for “DEDEKILEKYIRIETRALKTGNEEERENLADPNTKIDVNGVKIHGMEDWSRKLLKWLRDHGATNDLKFERIKFQGEKVILDGRLHVHYNGVDLEIETIIYFTKYNGKWILKSMEVI”, the protease stability score was determined as 0.229.
The sequence “DEDEKIVKHMLEVLIHLILTGDWEMFQKLADPNTRLDINGREQVGWESVTKNLEHMRYHDIRSQHIEIQGNKLRNLTRVDGEVDGVRREIEVHIYSTKINGKWRLTSMQFH” gave a protease stability score of 1.1.
“DEDEKIYRWALSVFLRNFLTGDEDSLRRMMDPDVRLEVGDKEDHGMEKVVRWLTEMMRKFKGATVHLRDHKTQGNKVHLDLELNVGDKHSKLIIIIKKVDGQWIVDEFTVH” came in with a protease stability score of 1.52.
“DEDEKKLEHHLRTYEEALRTGDEELNHRLADPNTKVDVDGRYIHGRDFWREIMNQWRFKEMRFREIHLQGDKANVDTEVNIDVNGREMRTESHIISIKIDGRWMIKEVRFR” returned a protease stability score of 0.799.
For the sequence “DEDEKKLHKLSDELEHIWLTGDEDRWLELADPNTKVIINGKEVHGRENVAREIKKFLEDLGIDHFYIESSLAIDGRTDLNGQIHVNGRTLHVRIINHEFNGRVKRVEIHIR”, the protease stability score is 2.09.
Consider “DEDEKLKQEWMELFLESLRTGDWRILRKLIDPNVRLEVGDKQVIGREKVLEILKKILDEIRNQDVKLHDYTEINGRIYLDVELDLQQGDKRITLKIHTVLEKYDGRWIIRTFRIE”, for which the protease stability score came to 1.23.
“DEDEKLLEKIAREFFEALKTGDEDWLTELADPHVKLDVGEWDTHGMEEIKNVLKILLHELGFKHRELHDMDIVNGVNVIDVIIRINGKERKVTIIIVTIDGRIKSIHHRVN” came in with a protease stability score of 2.15.
In turn, “DEDEKLMEETLKVLIRAFDTGNWEDLKRMVDPHVRIYFNGRIFHGREFFMEYVIHLRHHARIHLELKDIEVQGDKAHADSRVLVIQGDKSWEFDLEINMTKYDGRWHIKTIKIR” gave a protease stability score of 2.68.
For the sequence “DEDEKLSKFAIDNFIQLMLTGDEDSLLHLADPNARLHFNGVEIHGMEEVQERLMRERKERGVRIHSIHIEHIDIQGDWIIVHMHITQRVNGKEESIERILILLKINGRWHLHQIRLH”, the protease stability score is 1.28.
To “DEDEKLSREAFRKLLEDRETGDEHMLTRNADPRARIEVNGVELHGREHAEKFWRHYHEKFKNIRINIEHHEIQGEKVIIRGILHVNGVNLTVEIHALKINGKWLNEEFSVK” belongs 0.129.
“DEDEKMAREFVELWVHLLSTGNEDLEKHLVDPHVRVDINGQEIHGRNHLITFLIQIKNLTFEFRHVRITVVGDKIQVHIHGIVQVNGQWREVMIDFEAEKINGRWLQKQFHVKIH” showed a protease stability score of 1.96.
“DEDEKMLREYQRLFEEASKTGDWEHMVKLLDPDVRIRIGDKDIVGREHVLEQKKRHEDHLGIDRVNIKLVIRDERHQGEKIFLDGEFIMHFNGRTYRQHVTIILTKINGRWWIESIEIR”: the protease stability score was found to be 1.19.
Consider “DEDEKMMELIIKWLQNWMLTGDFDVLHDLVDPHAKYDIGDKEMHGREAQSFLRRRFDHIEHVHLRIDDVESQGDKLIVHGQNTVVGEINGKRENFKRKVHITLEKIDGQWFEREVRVR”, for which the protease stability score worked out at 1.51.
For the sequence “DEDEKMSHEASRVTLQVLITGDEEAMHRLLDPNARMDYGDKQFHGWEEVSKLTTELLTRLGVDHYHMNDERIYGEKLDLDLTIHVNGRNRKFIIIVRKINGRWLIDSMTFK”, the protease stability score came out at 0.576.
“DEDEKNLEKVAHDFIRATETGNEKILHELLDPNTREEINGVDLHGRETIAKFFLDIRRNLGIKVRMRLRDWKIYNGVVELDTEVIIDVGDKRIEHKVVIYVVKYNGRWLIDKIEWI”: the protease stability score amounted to 1.81.
The sequence “DEDEKNMHIAMEIYRESVETGNEKMHRHLLDPHARIRFDGQEFHGWKDAHRFMHHRTHEWRDHHIQLRDRDYIDGRVHIRVIIYGEFNGVRTTRDIEIHVEKIDGRWYFTNLIFG” yielded a protease stability score of 0.285.
